Data as given in the RNAGym collection of RNA variant scans (doi:10.7554/elife.80360).

B1: CPEB3 Ribozyme (parent)
chain: GGGGGCCACAGCAGAAGCGUUCACGUCGCGGCCCCUGUCAGAUUCUGGUGAAUCUGCGAAUUCUGCUGU

Variants of: B1
Experiment: self-cleavage, relative activity (ratio to wild type); higher = more cleavage; co-transcriptional

Variant | self-cleavage
GGGGGCCACAGCAGAAGCGUUCACGUCGCGGCCCCUGUCAGAUUCUGGUGAAUCUGCGAACUUUGCUGU [U61C C63U] | 0.425
GGGGGCCACAGCAGAAGCGUUCACGUCGCGGCCCCUGUCAGAUUCUGGUGAAUCUGCGAACUAUGCUGU [U61C C63A] | 0.651
GGGGGCCACAGCAGAAGCGUUCACGUCGCGGCCCCUGUCAGAUUCUGGUGAAUCUGCGAACUCUGUUGU [U61C C66U] | 0.557
GGGGGCCACAGCAGAAGCGUUCACGUCGCGGCCCCUGUCAGAUUCUGGUGAAUCUGCGAACUCUGAUGU [U61C C66A] | 0.375
GGGGGCCACAGCAGAAGCGUUCACGUCGCGGCCCCUGUCAGAUUCUGGUGAAUCUGCGAACUCUGGUGU [U61C C66G] | 0.396
GGGGGCCACAGCAGAAGCGUUCACGUCGCGGCCCCUGUCAGAUUCUGGUGAAUCUGCGAACUCUGCUGU [U61C] | 0.88
GGGGGCCACAGCAGAAGCGUUCACGUCGCGGCCCCUGUCAGAUUCUGGUGAAUCUGCGAAAUCUGCUGU [U61A] | 0.96
GGGGGCCACAGCAGAAGCGUUCACGUCGCGGCCCCUGUCAGAUUCUGGUGAAUCUGCGAUUUCUUCUGU [A60U G65U] | 0.43
GGGGGCCACAGCAGAAGCGUUCACGUCGCGGCCCCUGUCAGAUUCUGGUGAAUCUGCGAACCCUGCUGU [U61C U62C] | 0.479
GGGGGCCACAGCAGAAGCGUUCACGUCGCGGCCCCUGUCAGAUUCUGGUGAAUCUGCGAUUUCUGCAGU [A60U U67A] | 0.454
GGGGGCCACAGCAGAAGCGUUCACGUCGCGGCCCCUGUCAGAUUCUGGUGAAUCUGCGAUUUCUGCCGU [A60U U67C] | 0.471
GGGGGCCACAGCAGAAGCGUUCACGUCGCGGCCCCUGUCAGAUUCUGGUGAAUCUGCGAAAUCUGCUUU [U61A G68U] | 0.937
GGGGGCCACAGCAGAAGCGUUCACGUCGCGGCCCCUGUCAGAUUCUGGUGAAUCUGCGAAAUCUGCUCU [U61A G68C] | 0.947
GGGGGCCACAGCAGAAGCGUUCACGUCGCGGCCCCUGUCAGAUUCUGGUGAAUCUGCGAACUCUUCUGU [U61C G65U] | 0.292
GGGGGCCACAGCAGAAGCGUUCACGUCGCGGCCCCUGUCAGAUUCUGGUGAAUCUGCGAACUCUCCUGU [U61C G65C] | 0.339
GGGGGCCACAGCAGAAGCGUUCACGUCGCGGCCCCUGUCAGAUUCUGGUGAAUCUGCGAACUCUGCUAU [U61C G68A] | 0.924
GGGGGCCACAGCAGAAGCGUUCACGUCGCGGCCCCUGUCAGAUUCUGGUGAAUCUGCGAACUCUGCUCU [U61C G68C] | 0.978
GGGGGCCACAGCAGAAGCGUUCACGUCGCGGCCCCUGUCAGAUUCUGGUGAAUCUGCGAAAGCUGCUGU [U61A U62G] | 0.646
GGGGGCCACAGCAGAAGCGUUCACGUCGCGGCCCCUGUCAGAUUCUGGUGAAUCUGCGAAACCUGCUGU [U61A U62C] | 0.829
GGGGGCCACAGCAGAAGCGUUCACGUCGCGGCCCCUGUCAGAUUCUGGUGAAUCUGCGAAAUUUGCUGU [U61A C63U] | 0.721

Variant | self-cleavage
GGGGGCCACAGCAGAAGCGUUCACGUCGCGGCCCCUGUCAGAUUCUGGUGAAUCUGCGAAAUAUGCUGU [U61A C63A] | 0.729
GGGGGCCACAGCAGAAGCGUUCACGUCGCGGCCCCUGUCAGAUUCUGGUGAAUCUGCGAAAUCUGCCGU [U61A U67C] | 0.896
GGGGGCCACAGCAGAAGCGUUCACGUCGCGGCCCCUGUCAGAUUCUGGUGAAUCUGCGAAAUCUGCAGU [U61A U67A] | 0.903
GGGGGCCACAGCAGAAGCGUUCACGUCGCGGCCCCUGUCAGAUUCUGGUGAAUCUGCGAAAUCUGCGGU [U61A U67G] | 0.958
GGGGGCCACAGCAGAAGCGUUCACGUCGCGGCCCCUGUCAGAUUCUGGUGAAUCUGCGAUUACUGCUGU [A60U U62A] | 0.551
GGGGGCCACAGCAGAAGCGUUCACGUCGCGGCCCCUGUCAGAUUCUGGUGAAUCUGCGAUUCCUGCUGU [A60U U62C] | 0.492
GGGGGCCACAGCAGAAGCGUUCACGUCGCGGCCCCUGUCAGAUUCUGGUGAAUCUGCGAAAUCUGGUGU [U61A C66G] | 0.44
GGGGGCCACAGCAGAAGCGUUCACGUCGCGGCCCCUGUCAGAUUCUGGUGAAUCUGCGAAAUCUGAUGU [U61A C66A] | 0.386
GGGGGCCACAGCAGAAGCGUUCACGUCGCGGCCCCUGUCAGAUUCUGGUGAAUCUGCGAACUCAGCUGU [U61C U64A] | 0.322
GGGGGCCACAGCAGAAGCGUUCACGUCGCGGCCCCUGUCAGAUUCUGGUGAAUCUGCGAUUUCUGCUGC [A60U U69C] | 0.754
GGGGGCCACAGCAGAAGCGUUCACGUCGCGGCCCCUGUCAGAUUCUGGUGAAUCUGCGAUUUCUGCUGG [A60U U69G] | 0.614
GGGGGCCACAGCAGAAGCGUUCACGUCGCGGCCCCUGUCAGAUUCUGGUGAAUCUGCGAUCUCUGCUGU [A60U U61C] | 0.629
GGGGGCCACAGCAGAAGCGUUCACGUCGCGGCCCCUGUCAGAUUCUGGUGAAUCUGCGAUGUCUGCUGU [A60U U61G] | 0.556
GGGGGCCACAGCAGAAGCGUUCACGUCGCGGCCCCUGUCAGAUUCUGGUGAAUCUGCGAAAUCUGCUGA [U61A U69A] | 0.958
GGGGGCCACAGCAGAAGCGUUCACGUCGCGGCCCCUGUCAGAUUCUGGUGAAUCUGCGAAAUCUACUGU [U61A G65A] | 0.519
GGGGGCCACAGCAGAAGCGUUCACGUCGCGGCCCCUGUCAGAUUCUGGUGAAUCUGCGAAAUCUUCUGU [U61A G65U] | 0.459
GGGGGCCACAGCAGAAGCGUUCACGUCGCGGCCCCUGUCAGAUUCUGGUGAAUCUGCGAAAUCUCCUGU [U61A G65C] | 0.542
GGGGGCCACAGCAGAAGCGUUCACGUCGCGGCCCCUGUCAGAUUCUGGUGAAUCUGCGAAAUCAGCUGU [U61A U64A] | 0.54
GGGGGCCACAGCAGAAGCGUUCACGUCGCGGCCCCUGUCAGAUUCUGGUGAAUCUGCGAUUUCCGCUGU [A60U U64C] | 0.445
